Target: T1, POT1 (Homo sapiens, UniProt Q9NUX5 1-634)
T1 sequence: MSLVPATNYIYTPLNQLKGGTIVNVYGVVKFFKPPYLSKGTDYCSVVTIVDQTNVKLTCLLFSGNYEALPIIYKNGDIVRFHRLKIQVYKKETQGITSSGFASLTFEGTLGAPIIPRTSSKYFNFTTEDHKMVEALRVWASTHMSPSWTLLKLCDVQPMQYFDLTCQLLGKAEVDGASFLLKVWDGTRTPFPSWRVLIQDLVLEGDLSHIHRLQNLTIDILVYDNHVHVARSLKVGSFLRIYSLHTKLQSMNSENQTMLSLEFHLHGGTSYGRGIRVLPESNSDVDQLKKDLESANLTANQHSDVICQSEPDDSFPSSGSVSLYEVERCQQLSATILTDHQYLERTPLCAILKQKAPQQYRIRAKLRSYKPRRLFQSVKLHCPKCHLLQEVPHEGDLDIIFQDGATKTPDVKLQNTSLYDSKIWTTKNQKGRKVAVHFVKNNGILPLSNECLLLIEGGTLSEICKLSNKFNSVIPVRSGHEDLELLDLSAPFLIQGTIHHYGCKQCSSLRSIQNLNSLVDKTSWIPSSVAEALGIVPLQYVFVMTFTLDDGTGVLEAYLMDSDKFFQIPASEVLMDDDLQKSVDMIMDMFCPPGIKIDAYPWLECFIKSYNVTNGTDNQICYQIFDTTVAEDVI
Assay: EMSA

B1: primer a5TT (ssDNA)
DNA: TTAGGGTTAGCGTTAGGGTT
Question: For B1, which Kd is on record?
Answer: The Kd was 50 nM.
